Kd data for 18 molecules are collected here from patent US20220041738A1 (SAITAMA MEDICAL UNIVERSITY, published 2022).

Positions count from the first letter of the chain named.

T1: human ALK2 extracellular domain with C-terminal His tag (E. coli) (human, UniProt Q04771 21-123)
T1 construct: Expressed in E. coli SHuffle T7, purified to a single band of 12 kDa; also called ALK2-ECD; human ALK2-ECD; not shown: C-terminal His tag from pET-28b(+)
T1 sequence: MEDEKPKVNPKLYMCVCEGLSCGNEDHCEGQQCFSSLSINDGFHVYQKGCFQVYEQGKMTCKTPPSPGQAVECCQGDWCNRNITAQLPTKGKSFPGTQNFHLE

T2: Recombinant Human ALK2 Fc Chimera (Sino Biological Inc.) (human, UniProt Q04771 21-123)
T2 construct: Bought product; not shown: Fc of the bought chimera
T2 sequence: T1 sequence

B1: humanized hA2-27D-H2/L2 (IgG1 LALA) (antibody)
heavy: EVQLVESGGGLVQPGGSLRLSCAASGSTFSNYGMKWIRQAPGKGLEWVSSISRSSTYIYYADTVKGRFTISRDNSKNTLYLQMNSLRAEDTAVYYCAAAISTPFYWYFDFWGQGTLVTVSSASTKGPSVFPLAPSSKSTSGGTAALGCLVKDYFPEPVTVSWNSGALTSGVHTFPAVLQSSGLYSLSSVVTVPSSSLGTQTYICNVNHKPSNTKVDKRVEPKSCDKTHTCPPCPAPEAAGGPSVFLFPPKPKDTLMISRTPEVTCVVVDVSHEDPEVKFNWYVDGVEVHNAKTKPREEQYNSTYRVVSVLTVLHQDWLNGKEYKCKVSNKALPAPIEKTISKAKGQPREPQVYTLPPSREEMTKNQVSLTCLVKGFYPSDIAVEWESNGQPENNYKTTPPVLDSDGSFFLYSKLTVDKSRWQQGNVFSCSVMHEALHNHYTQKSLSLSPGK
light: EIVLTQSPGTLSLSPGERATLSCLASSSVSYMTWYQQKPGQSPRLWIYGTSNLASGVPDRFSGSGSGTDFTLTISRLEPEDFAVYYCLHLTSYPPYTFGQGTKVEIKRAVAAPSVFIFPPSDEQLKSGTASVVCLLNNFYPREAKVQWKVDNALQSGNSQESVTEQDSKDSTYSLSSTLTLSKADYEKHKVYACEVTHQGLSSPVTKSFNRGEC
notes: also called humanized A2-27D-H2/L2 (IgG1 LALA); humanized A2-27D antibody (LALA)
B2: humanized hA2-27D-H3/L4 (IgG1 LALA) (antibody)
heavy: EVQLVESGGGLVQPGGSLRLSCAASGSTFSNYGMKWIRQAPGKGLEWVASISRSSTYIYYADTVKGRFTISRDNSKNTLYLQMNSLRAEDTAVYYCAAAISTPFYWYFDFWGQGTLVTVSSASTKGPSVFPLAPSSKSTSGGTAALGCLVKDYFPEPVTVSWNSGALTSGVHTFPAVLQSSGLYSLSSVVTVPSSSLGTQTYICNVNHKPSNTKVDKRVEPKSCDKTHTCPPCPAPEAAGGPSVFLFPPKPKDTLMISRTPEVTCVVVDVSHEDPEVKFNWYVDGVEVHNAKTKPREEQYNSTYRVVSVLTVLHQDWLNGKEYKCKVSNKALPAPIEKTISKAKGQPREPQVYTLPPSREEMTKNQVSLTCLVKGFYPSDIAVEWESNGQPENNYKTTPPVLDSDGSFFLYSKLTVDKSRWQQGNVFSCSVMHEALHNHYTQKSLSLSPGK
light: B1 light with L11M, L13A, A19V, Q41A, F70Y, L77M, V84T, Q100A, V104L, I106L
B3: humanized hA2-15A-H4/L6 (IgG2) (antibody)
heavy: EVQLVESGGGLVQPGGSLRLSCAASGFTFSHYYMAWVRQAPGKGLEWVASITNSGGSINYRDSVKGRFTISRDNAKSTLYLQMNSLRAEDTATYYCTREGGENYGGYPPFAYWGQGTLVTVSSASTKGPSVFPLAPCSRSTSESTAALGCLVKDYFPEPVTVSWNSGALTSGVHTFPAVLQSSGLYSLSSVVTVPSSNFGTQTYTCNVDHKPSNTKVDKTVERKCCVECPPCPAPPVAGPSVFLFPPKPKDTLMISRTPEVTCVVVDVSHEDPEVQFNWYVDGVEVHNAKTKPREEQFNSTFRVVSVLTVVHQDWLNGKEYKCKVSNKGLPAPIEKTISKTKGQPREPQVYTLPPSREEMTKNQVSLTCLVKGFYPSDIAVEWESNGQPENNYKTTPPMLDSDGSFFLYSKLTVDKSRWQQGNVFSCSVMHEALHNHYTQKSLSLSPGK
light: DIVLTQSPDSLAVSLGERATINCRANQGVSLSRYNLMHWYQQKPGQKPKLLIYRSSNLAQGIPARFSGSGSGTDFTLTISSVQADDIAVYYCQQSRESPFTFGQGTKLELKRAVAAPSVFIFPPSDEQLKSGTASVVCLLNNFYPREAKVQWKVDNALQSGNSQESVTEQDSKDSTYSLSSTLTLSKADYEKHKVYACEVTHQGLSSPVTKSFNRGEC
notes: Human IgG2, kappa; also called humanized A2-15A-H4/L6 (IgG2); humanized A2-15A antibody (IgG2)
B4: humanized hA2-25C-H3/L2 (antibody, human IgG1, kappa, V domains shown)
VH: EVQLVESGGGLVQPGGSLRLSCAASGFTFSYYAMSWVRQAPGKGLEWVASISRGGDNTYYRDSVKGRFTTSRDNSKNTLYLQMNSLRAEDTAVYYCARLNYNNYFDYWGQGTLVTVSS
VL: DIQMTQSPSSLSASVGDRVTITCQASQDIGNWLSWYQQKPGKAPKLLIYGATSLADGVPSRFSGSRSGTDYTLTISSLQPEDFATYYCLQAYSAPFTFGQGTKVEIKR
notes: Human IgG1, kappa; used as culture supernatant of FreeStyle 293F cells
B5: humanized hA2-25C-H4/L2 (antibody, human IgG1, kappa, V domains shown)
VH: B4 VH with V93T, T112V
VL: B4 VL
notes: as for B4
B6: humanized hA2-25C-H4/L3 (antibody, human IgG1, kappa, V domains shown)
VH: B4 VH with V93T, T112V
VL: B4 VL with A43S, D70Q, Q100S
notes: as for B4
B7: humanized hA2-25C-H3/L1 (antibody, human IgG1, kappa, V domains shown)
VH: B4 VH
VL: B4 VL with R66G, Y71F
notes: as for B4
B8: humanized hA2-25C-H4/L1 (antibody, human IgG1, kappa, V domains shown)
VH: B4 VH with V93T, T112V
VL: B4 VL with R66G, Y71F
notes: as for B4
B9: humanized hA2-25C-H3/L3 (antibody, human IgG1, kappa, V domains shown)
VH: B4 VH
VL: B4 VL with A43S, D70Q, Q100S
notes: as for B4
B10: humanized hA2-11E-H3/L3 (antibody, human IgG1, kappa, V domains shown)
VH: EVQLVESGGGLVQPGGSLRLSCAASGFTFSNYYMYWIRQAPGKGLEWVSSINTDGGSTYYADSVKGRFTISRDNSKNTVYLQMNSLRAEDTAVYYCAKSTPNIPLAYWGQGTLVTVSS
VL: DIQMTQSPSSLSASVGDRVTITCKASQNIYKYLNWFQQKPGKAPKLLIYYSNSLQTGIPSRFSGSGSGTDFTLTISSLQPEDFATYYCFQYSSGPTFGQGTKVEIKR
notes: as for B4
B11: humanized hA2-11E-H3/L4 (antibody, human IgG1, kappa, V domains shown)
VH: B10 VH
VL: B10 VL with T22S, K42E, T85I, Y87F, Q99P
notes: as for B4
B12: humanized hA2-11E-H4/L2 (antibody, human IgG1, kappa, V domains shown)
VH: B10 VH with V48I, A61P
VL: B10 VL with I58V
notes: as for B4
B13: humanized hA2-11E-H4/L4 (antibody, human IgG1, kappa, V domains shown)
VH: B10 VH with V48I, A61P
VL: B10 VL with T22S, K42E, T85I, Y87F, Q99P
notes: as for B4
B14: humanized hA2-11E-H4/L3 (antibody, human IgG1, kappa, V domains shown)
VH: B10 VH with V48I, A61P
VL: B10 VL
notes: as for B4
B15: humanized hA2-11E-H3/L2 (antibody, human IgG1, kappa, V domains shown)
VH: B10 VH
VL: B10 VL with I58V
notes: as for B4
B16: humanized hA2-27D-H2/L2 (antibody, human IgG1)
heavy: not shown
light: B1 light
notes: Human IgG1, kappa; also called humanized A2-27D antibody (IgG1)
B17: humanized hA2-27D-H3/L4 (antibody, human IgG1)
heavy: not shown
light: B1 light with L11M, L13A, A19V, Q41A, F70Y, L77M, V84T, Q100A, V104L, I106L
notes: as for B16
B18: humanized hA2-15A-H4/L6 (antibody, human IgG1)
heavy: not shown
light: B3 light
notes: Human IgG1, kappa; also called humanized A2-15A antibody (IgG1)

One assay deals with T1, human ALK2 extracellular domain with …. The experiment in a line: SPR, Biacore T200; antibody captured by anti-human IgG (Fc), antigen as analyte; 1:1 binding model. How it is done: The dissociation constants of humanized hA2-15A-H4/L6 (IgG2) prepared in Example 11)-4, and humanized hA2-27D-H2/L2 (IgG1 LALA) and humanized hA2-27D-H3/L4 (IgG1 LALA) prepared in Example 12)-4 for the antigen (human ALK2 extracellular domain prepared in Example 14)-1) were measured using Biacore T200 (GE Healthcare Bio-Sciences Corp., Japan) by the capture method which involves capturing each antibody as a ligand onto an immobilized anti-human IgG (Fc) antibody and assaying the antigen as an analyte. Approximately 1000 RU of the anti-human IgG (Fc) antibody (Human Antibody Capture kit, GE Healthcare Bio-Sciences Corp.) was covalently bound to a sensor chip CM5 (GE Healthcare Bio-Sciences Corp.) by the amine coupling method. Similarly, this antibody was immobilized onto a reference cell. The running buffer used was HBS-EP+(10 mM HEPES (pH 7.4), 0.15 M NaCl, 3 mM EDTA, and 0.05% Surfactant P20). The antibody was added onto the anti-human IgG (Fc) antibody-immobilized chip for approximately 1 minute. Then, serially diluted solutions (0.78 to 200 nM) of the antigen were added thereto at a flow rate of 30 μl/min for 300 seconds. Subsequently, the dissociation phase was monitored for 600 seconds. A 3 M magnesium chloride solution was added thereto as a regenerating solution at a flow rate of 10 μl/min for 30 seconds. The data was analyzed using 1:1 binding models of analytical software (BIAevaluation software, version 1.0) to calculate an association rate constant ka, a dissociation rate constant kd, and a dissociation constant (KD; KD=kd/ka).
B1 showed a Kd of 13.6 nM.

For B2, the Kd came out at 13.3 nM.

For B3, the Kd is 17.4 nM.

The next assay has the same target. The experiment in a line: SPR, Biacore T200; antibody captured from culture supernatant by anti-human IgG (Fc), antigen as analyte; 1:1 binding model. The protocol: The dissociation constants of the humanized A2-11E antibodies (IgG1) and the humanized A2-25C antibodies (IgG1) prepared in Example 18)-5 for the antigen (human ALK2 extracellular domain prepared in Example 14)-1) were measured using Biacore T200 (GE Healthcare Bio-Sciences Corp.) by the capture method which involves capturing each antibody as a ligand onto an immobilized anti-human IgG (Fc) antibody and assaying the antigen as an analyte. Approximately 1000 RU of the anti-human IgG (Fc) antibody (Human Antibody Capture kit, GE Healthcare Bio-Sciences Corp.) was covalently bound to a sensor chip CM5 (GE Healthcare Bio-Sciences Corp.) by the amine coupling method. Similarly, this antibody was immobilized onto a reference cell. The running buffer used was HBS-EP+(10 mM HEPES (pH 7.4), 0.15 M NaCl, 3 mM EDTA, and 0.05% Surfactant P20). The culture supernatant containing the antibody was added onto the anti-human IgG (Fc) antibody-immobilized chip for approximately 1 minute. Then, serially diluted solutions (0.78 to 200 nM) of the antigen were added thereto at a flow rate of 30 μl/min for 300 seconds. Subsequently, the dissociation phase was monitored for 600 seconds. 3 M MgCl₂ was added thereto as a regenerating solution at a flow rate of 10 μl/min for 30 seconds. The data was analyzed using 1:1 binding models of analytical software (BIAevaluation software, version 1.0) to calculate an association rate constant ka, a dissociation rate constant kd, and a dissociation constant (KD; KD=kd/ka).
Regarding B4, the Kd is 53.3 nM.

On to B5, for which the Kd is 56.7 nM.

For the molecule B6, the Kd turned out to be 27.9 nM.

B7 had a Kd of 116 nM.

As for B8, the Kd turned out to be 81.8 nM.

In turn, B9 came in with a Kd of 64.4 nM.

With B10, the Kd is 47.4 nM.

As to B11, the Kd was 31.3 nM.

B12 showed a Kd of 19.9 nM.

On to B13, for which the Kd is 11.1 nM.

With B14, the Kd came to 18.5 nM.

In the case of B15, the Kd came to 63.1 nM.

The target in another assay is T2, Recombinant Human ALK2 Fc Chimera (Sino …). The experiment in a line: SPR, Biacore T200; antigen immobilised on CM5 chip, antibody as analyte; bivalent binding model. How it is done:
The dissociation constants of humanized hA2-15A-H4/L6, humanized hA2-27D-H2/L2, and humanized hA2-27D-H3/L4 prepared in Example 8)-5 for the antigen (Recombinant Human ALK2 Fc Chimera, Sino Biological Inc.) were measured in Biacore T200 (GE Healthcare Bio-Sciences Corp.) by using the antigen immobilized as a ligand and each antibody as an analyte. The antigen was added at 1.25 μg/mL for 60 seconds and immobilized onto a sensor chip CM5 (GE Healthcare Bio-Sciences Corp.). The running buffer used was HBS-EP+(10 mM HEPES (pH 7.4), 0.15 M NaCl, 3 mM EDTA, and 0.05% Surfactant P20). Serially diluted solutions (0.2 to 50 nM) of the antibody were added onto the antigen-immobilized chip at a flow rate of 30 μl/min for 300 seconds. Subsequently, the dissociation phase was monitored for 1800 seconds. A 10 mM glycine/hydrochloric acid solution (pH 1.5) was added thereto as a regenerating solution at a flow rate of 10 μl/min for 30 seconds twice. The data was analyzed using bivalent binding models of analytical software (BIAevaluation software, version 1.0) to calculate an association rate constant ka, a dissociation rate constant kd, and a dissociation constant (KD; KD=kd/ka).
A general note: In SPR one partner is held on a chip, and binding of the other changes the refractive index at the surface.
Regarding B16, the Kd worked out at 5.7 nM.

As to B17, the Kd is 4.3 nM.

With B18, the Kd stood at 4.3 nM.
